Test results as given in patent US20220281990A1 (MERRIMACK PHARMACEUTICALS, published 2022).

T1: Human TNFR2 expressed on cells (CHO-hTNFR2 cells) (human, UniProt P20333 23-461)
T1 construct: also called CHO cells overexpressing human TNFR2; human TNFR2 reporter cells (HEK293)
T1 sequence: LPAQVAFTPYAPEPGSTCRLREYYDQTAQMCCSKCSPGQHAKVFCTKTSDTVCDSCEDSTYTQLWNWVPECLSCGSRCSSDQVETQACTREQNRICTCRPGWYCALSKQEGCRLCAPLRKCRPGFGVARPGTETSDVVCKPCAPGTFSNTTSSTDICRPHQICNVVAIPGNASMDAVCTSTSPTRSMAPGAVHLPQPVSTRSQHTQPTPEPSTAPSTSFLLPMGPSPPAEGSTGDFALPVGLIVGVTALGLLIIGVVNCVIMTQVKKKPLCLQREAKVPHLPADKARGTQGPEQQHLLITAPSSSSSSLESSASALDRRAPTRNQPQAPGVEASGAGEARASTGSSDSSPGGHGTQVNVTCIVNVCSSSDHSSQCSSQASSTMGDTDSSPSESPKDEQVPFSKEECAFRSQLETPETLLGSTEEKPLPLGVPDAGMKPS

T2: recombinant human TNFR2-hFc protein (human, UniProt P20333 23-257)
T2 construct: also called hTNFR2-Fc; human TNFR2-Fc; not shown: human Fc
T2 sequence: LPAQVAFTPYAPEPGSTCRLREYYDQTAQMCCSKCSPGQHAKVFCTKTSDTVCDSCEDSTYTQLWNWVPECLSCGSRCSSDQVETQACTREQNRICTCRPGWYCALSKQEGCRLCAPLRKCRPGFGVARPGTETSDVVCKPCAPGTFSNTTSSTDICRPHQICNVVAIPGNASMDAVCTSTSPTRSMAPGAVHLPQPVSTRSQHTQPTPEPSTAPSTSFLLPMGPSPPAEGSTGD


Columns and labels:
[1] = biological target: T1, Human TNFR2 expressed on cells …; experiment: flow cytometry; soluble scFv inhibiting TNF (1 nM) binding to CHO-hTNFR2 cells (FIG. 3)
[2] = biological target: T1, Human TNFR2 expressed on cells …; experiment: flow cytometry, titration of soluble scFv (up to 300 nM) on CHO-hTNFR2 cells; one site binding non-linear fit
[3] = biological target: T2, recombinant human TNFR2-hFc protein; experiment: flow cytometry; hTNFR2-Fc binding to scFv displayed on yeast; one site binding fit (FIG. 4)
[4] = biological target: T1, Human TNFR2 expressed on cells …; experiment: flow cytometry; soluble scFv inhibiting TNF (1 nM) binding to CHO-hTNFR2 cells (FIGS. 5A-5B)
[5] = biological target: T2, recombinant human TNFR2-hFc protein; experiment: flow cytometry; TNFR2-Fc binding to scFv displayed on yeast (FIGS. 6A-6C)
[6] = biological target: T2, recombinant human TNFR2-hFc protein; experiment: flow cytometry; hTNFR2-Fc binding to scFv displayed on yeast; one site binding fit (FIG. 6A)
[7] = biological target: T2, recombinant human TNFR2-hFc protein; experiment: flow cytometry; hTNFR2-Fc binding to scFv displayed on yeast; one site binding fit (FIG. 6B)
[8] = biological target: T2, recombinant human TNFR2-hFc protein; experiment: flow cytometry; hTNFR2-Fc binding to scFv displayed on yeast; one site binding fit (FIG. 6C)

| Binder | IC50 [1] | Kd [2] | fold higher affinity (vs parental scFv) [5] | further results |
| --- | --- | --- | --- | --- |
| UC6 (9-1A6) scFv (scFv, Soluble scFv) scFv: QVQLVQSGAEVKKPGSSVKVSCKASGDSFNNFGISWVRQAPGQGLEWMGGIVPVLGIATYAQKFQGRVTITADESTSTAYMELSSLRSEDTAVYYCARGSAWYDGSFQYWGQGTLVTVSSASSGGSTSGSGKPGSGEGSSGSAREIVLTQSPGTLSLSPGERATLSCRASQSVSSTFLAWYQQKPGQAPRLLIYDASTRATGIPDRFSGSDSGTDFTLTISRLEPEDFAVYYCQQYDSWPFTFGQGTKVEIKR | 69.7 nM | 42 nM | – | – |
| UC1 (S4-2 1B5) scFv (scFv) scFv: QVQLLESGGGLVQPGGSLRLSCAASGFSFTSYAMTWVRQAPGKGLEWVSGISGGGAATFYADSVKGRFTISRDNSKNTLYLQMNSLRAEDTAVYYCARQSQYVGGFDYWGQGTLVTVSSASSGGSTSGSGKPGSGEGSSGSARQSVLTQPPSVSGAPGQRVTISCTGSSSNIGAGYGVHWYQQLPGTAPKLLIYGNTNRPSGVPDRFSGFKSGTSASLAITGLQAEDEADYYCQSYDSSLSGWVFGGGTKLTVLG | – | 8.17 nM | – | Kd [3]: 18.1 nM; IC50 [4]: 4.44 nM |
| UC1.2 (S4-2 1B5-1A5) scFv (scFv) scFv: QVQLLESGGGLVQPGGSLRLSCAASGFSFTSYAMTWVRQAPGKGLEWVSGISGGGAATFYADSVKGRFTISRDNSKNTLYLQMNSLRAEDTAVYYCARQSQYVGGFDYWGQGTLVTVSSASSGGSTSGSGKPDSGEGSSGSARQSVLTQPPSVSGAPGQRVTISCTGSSSNFGAGYGVHWYQQLPGTAPKLLIHGNTNRPSGVPDRFSGFKSGTSASLAITGLQAEDEADYYCQSYDSSLSGWVFGGGTKLTVLG | – | – | 10 fold | Kd [6]: 0.57 nM |
| UC2.3.12 (S4-2 1D10-1G9-1H1) scFv (scFv) scFv: QVQLLESGGGLVQPGDSLRLSCAASGFTFSTYAMSWIRQAPGKGLEWVSIISDGGDATVYADSVKGRFTISRDNNRNTLYLQMNSLRAEDTAVYYCARDGTSAAAFDSWGQGTLVTVSSASSGGSTSGSGKPGSGEGSSGSARDIQMTQSPSSLSASVGDRVTITCQASQDITNFLNWYQQKPGKAPKLLIYDASTLQTGVPSRFSGSGSGTNFTFTISSLQPEDIATYYCQQSDSYPITFGQGTKVEIKR | – | – | 10 fold | Kd [7]: 1.98 nM |
| UC2.3.14 (S4-2 1D10-1G9-1H11) scFv (scFv) scFv: QVQLLESGGGLVQPGGSLRLSYAASGFTFSTYAMSWIRQAPRKGLEWVSIISDGGDATVYADSVKGRFTISRDNSKNTLYLQMNSLRAEDTAVYYCARDRTSAAAFDSWGQGTLVTVSSASSGGSTSGSGKPGSGEGSSGSARDIQMTQSPSSLSASVGDRVTITCQASQDITNFLNWYQQKPGKAPKLLIYDASTLQTGVPSRFSGSGSGTDFTFTISSLQPEDIATYYCQQSDSYPITFGQGTKVEIKR | – | – | 10 fold | Kd [8]: 0.65 nM |
| UC3 (S4-2 1E5) scFv (scFv, Soluble scFv) scFv: QVQLLESGGGLVQPGGSLRLSCAASGFSFSSYAMSWVRQAPGKGLEWVSGISAGGGETFYADSVKGRFTISRDNSKNTLYLQMNSLRAEDTAVYYCARVHPISYGFDIWGQGTLVTVSSASSGGSTSGSGKPGSGEGSSGSARDIQMTQSPSSLSASVGDRVTITCQASQDIKKYLNWYQQKPGKAPKLLIYDASTLQTGVPSRFSGSGSGTDFTFTISSLQPEDIATYYCQQSDNTPVTFGQGTKVEIKR | 110 nM | 19.3 nM | – | – |
| UC 8 (9-2A4) scFv (scFv, Soluble scFv) scFv: QVQLVQSGAEVKKPGSSVKVSCKASGDTFSNYGFSWVRQAPGQGLEWMGGIVPVFGIATYAQKFQGRVTITADESTSTAYMELSSLRSEDTAVYYCARDYSYYPDDPRYFEYWGQGTLVTVSSASSGGSTSGSGKPGSGEGSSGSAREIVLTQSPGTLSLSPGERATLSCRASQSVSSTFLAWYQQKPGQAPRLLIYAASSRATGIPDRFSGSGSGTDFTLTISRLEPEDFAVYYCQQYGSWPLTFGQGTKVEIKR | 21.5 nM | 13.4 nM | – | – |

Continued, in another order:

| IC50 [1] | Kd [2] | fold higher affinity (vs parental scFv) [5] | Binder | further results |
| --- | --- | --- | --- | --- |
| 25.6 nM | 48.9 nM | – | UC7 (9-1B5) scFv (scFv, Soluble scFv) scFv: QVQLVQSGAEVKKPGSSVKVSCKASGDTFSSYGVSWVRQAPGQGLEWMGRIVPVFGIANYAQKFQGRVTITADESTSTAYMELSSLRSEDTAVYYCARQSPYVTYSSYYFDYWGQGTLVTVSSASSGGSTSGSGKPGSGEGSSGSAREIVLTQSPGTLSLSPGERATLSCRASQSVSNNFLAWYQQKPGQAPRLLIYDASTRATGIPDRFSGSGSGTDFTLTISRLEPEDFAVYYCQQYGSWPITFGQGTKVEIKR | – |
| – | – | 10 fold | UC1.3 (S4-2 1B5-1B3) scFv (scFv) scFv: QVQLLESGGGLVQPGGSLRLSCAASGFSFTSYAMTWVRQAPGKGLEWVSGISGDGAATFYADSVKGRFTISRDNSKNTLYLQMNSLRAEDTAVYYCARQSQYVGGFDYWGQGTLVTVSSASSGGSTSGSGKPDSGEGSSGSARQSVLTQPPSVSGAPGQRVTISCTGSSSNFGAGYGVHWYQQLPGTAPKLLIHGNTNRPSGVPDRFSGFKSGTSASLAITGLQAEDEADYYCQSYDSSLSGWVFGGGTKLTVLG | Kd [6]: 0.64 nM |
| – | 14.4 nM | – | UC2 (S4-2 1D10) scFv (scFv) scFv: QVQLLESGGGLVQPGGSLRLSCAASGFTFSTYAMSWVRQAPGKGLEWVSIISDGGDATFYADSVKGRFTISRDNSKNTLYLQMNSLRAEDTAVYYCARDGTSAAAFDSWGQGTLVTVSSASSGGSTSGSGKPGSGEGSSGSARDIQMTQSPSSLSASVGDRVTITCQASQDITNFLNWYQQKPGKAPKLLIYDASTLQTGVPSRFSGSGSGTDFTFTISSLQPEDIATYYCQQSDSYPITFGQGTKVEIKR | Kd [3]: 42.8 nM; IC50 [4]: 39.6 nM |
| – | – | 10 fold | UC2.3.11 (S4-2 1D10-1G9-1G3) scFv (scFv) scFv: QVQLLESGGGLVQPGGSLRLSCAVSGFTFSTYAMSWIRQAPGKGLEWVSIISDGGDATVYADSVKGRFTISRDNSKNTLYLQMNSLRAEDTAVYYWARDGTSAAAFDSWGQGTLVTVSSANSGGSTSGSGKPGSGEGSSGSARDIQMTQSPSSLSASVGDRVTITCQASQDITNFLNWYQQKPGKAPKLLIYDASTLQTGVPSRFSGSGSGTDFTFTISSLQPEDIATYYCQQSDSYPITFGQGTKVEIKR | Kd [7]: 1.52 nM |
| – | – | 10 fold | UC2.3.10 (S4-2 1D10-1G9-1G2) scFv (scFv) scFv: QVQLLESGGGLVQPGGSLRLSYAASGFTFSTYAMSWIRQAPGKGLEWVSIISDGGDATVYADSVKGRFTISRDNSKNTLYLQMNSLRAEDTAVYYCARDRTSAAAFDSWGQGTLVTVSSASSGGSTSGSGKPGSGEGSSGSARDIQMTQSPSSLSASVGDRVTITCQASQDITNFLNWYQQKPGKAPKLLIYDASTLQTGVPSRFSGSGSGTDFTFTISSLQPEDIATYYCQQSDSYPITFGQGTKVEIKR | Kd [7]: 0.63 nM |
| – | – | 10 fold | UC2.3.13 (S4-2 1D10-1G9-1G11) scFv (scFv) scFv: QVQLLESVGGLVQPGGSLRLSCAVSGFTFSTYAMSWIRQAPGKGLEWVSIISDGGDVTVYADSVKGRFTISRDNSKNTLYLQMNSLRAEDTAVYYCARDRTSAAAFDSWGQGTLVSDSSASSGGSTSGSGKPGSGEGSSGSSRDIQMTQSPSSLSASVGDRVTITCQASQDITNFLNWYQQKPGKAPKLLIYDASTLQTGVPSRFSGSGSGTDFNFTISSLQPEDIATYYCQQSDSYPITFGQGTKVEIKR | Kd [8]: 0.87 nM |
| – | – | 10 fold | UC2.3.9 (S4-2 1D10-1G9-1F12) scFv (scFv) scFv: QVQLLESGGGLVQPGGSLRLSCAASGFTFSTYAMSWIRQAPGKGLEWVSIISDGGDATVYADSVKGRFTISRDNNRNTLYLQMNSLRAEDTAVYYCARDGTSAAAFDSWGQGTLVTVSSASSGGSTSGSGKPGSGEGSSGSARDIQMTQSPSSLSASVGDRVTITCHASQDITNFLNWYQQKPGKAPKLLIYDASTLQTGVPSRFSGSGSGTDFTFTISSLQPEDIATYYCQQSDSYPITFGQGTKVEIKR | Kd [7]: 1.79 nM |
| 746 nM | 14.5 nM | – | UC5 (8-2A10) scFv (scFv, Soluble scFv) scFv: QVQLLESGGGLVQPGGSLRLSCAASGFTFNTYAMTWVRQAPGKGLEWVSAISDSGGDTFYADSVKGRFTISRDNSKNTLYLQMNSLRAEDTAVYYCARDGTYAARFDYWGQGTLVTVSSASSGGSTSGSGKPGSGEGSSGSARDIQMTQSPSSLSASVGDRVTITCQASQDISNYLNWYQQKPGKAPKLLIYDASTLETGVPSRFSGSGSGTDFTFTISSLQPEDIATYYCQQSDSFPITFGQGTKVEIKR | – |
